{"source": "patent US20010010935A1", "biological_target": "murine SCI/MIP1-α Variant 3 (murine) (UniProt P10855)", "experiment": "chromatographic techniques, molecular weight estimate", "data": [{"substance": "murine SCI/MIP1-α Variant 3 (from UniProt P10855) (ligand)", "values": [{"measurement": "estimated molecular weight (self-association)", "value": 8, "unit": "kD"}]}]}
